Assays:
MS2 coat protein [1] = assay: apparent KD of MS2 coat protein, switch OFF state (with FMN for OFF switches, without FMN for ON switches); designed switch direction (-1 OFF switch, 1 ON switch): -1; higher = weaker reporter binding; conditions: FMN input: 0 or 200 uM; Eterna round: R93 (includes R88 designs)
Procedure, shortened: (§1)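 Values are apparent KD, taken as the median for each design of fits to normalised binding curves from individual clusters. The designed RNA switches were transcribed on-chip from Illumina sequencing clusters and exposed to SNAP-549-labelled MS2 coat protein at twofold increasing amounts from 0.7 or 1.5 nM to 3 µM. Titration used 100 mM Tris-HCl pH 7.5, 80 mM KCl and 4 mM MgCl2, without or with constant ligand.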

MS2 coat protein [2] = assay: apparent KD of MS2 coat protein, switch ON state; designed switch direction (-1 OFF switch, 1 ON switch): -1; higher = weaker reporter binding; conditions: FMN input: 0 or 200 uM; Eterna round: R93 (includes R88 designs)
Procedure, shortened: as §1

MS2 coat protein [3] = assay: apparent KD of MS2 coat protein; designed switch direction (-1 OFF switch, 1 ON switch): 1; higher = weaker reporter binding
Procedure, shortened: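 Three titration conditions were used: no input, 200 uM small-molecule ligand, and an oligonucleotide input. In each, SNAP-549-labelled MS2 coat protein was raised from 0.7 or 1.5 nM, doubling, to 3 µM over designed RNA switches transcribed on Illumina chips by stalled E. coli RNA polymerase. Curve fits of normalised cluster fluorescence gave values whose per-design median over clusters is the apparent KD.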

[4] = input ligand: microRNA oligo, concentration not stated
[5] = Eterna round: R95, input ligand: FMN 200 uM
[6] = Eterna round: R95, input ligand: microRNA oligo, concentration not stated
[7] = Eterna round: R95, input ligand: none

Sequence	apparent KD of MS2 coat protein (MS2 coat protein [3]; input ligand: FMN 200 uM)	apparent KD of MS2 coat protein (MS2 coat protein [3]; [4])	apparent KD of MS2 coat protein (MS2 coat protein [3]; input ligand: none)	also measured
AAAAAAAAAGGAUAUAAAAAAAAAAGUCAGGAUAUAGGAAACUAGAAGGGACAUGAGGAUCACCCAUGUAAAAA [Meechl Ex4 R2 m0]	–	–	–	apparent KD of MS2 coat protein (MS2 coat protein [1]): 40.8 nM; apparent KD of MS2 coat protein (MS2 coat protein [2]): 63.5 nM
UUAAUUAAUUAAUUAUACAUGAGGAUCACCCAUGUAAGUGAUCAGGAUAUCAGCUCGUUUAGAGCUGAGAAGGGAUACAUGAAU [SSNG3/12-A3] (Eterna round: R96, puzzle: Same State NG 3)	91.6 nM	85.9 nM	143 nM	–
UUAAUUUACUGAGGAUAUCGUGUCGACUGAGUUGACAUGAGGAUCACCCAUGUGAGAAGUGGUAUCGAGAAGGCAGUUUUCAUA [JR_SSNG2_Sub024] (Eterna round: R96, puzzle: Same State NG 2)	17.2 nM	59 nM	89.6 nM	–
UUAGGAUGUGAAGGAUAUGCCGAGUUAAGCCCAGCAGAAGGUUACAUACCUUUUGAUACAUGAGGAUCACCCAUGUUCUAAGAU [Eternabot solution 45] (Eterna round: R96, puzzle: Same State NG 1)	–	33.8 nM	–	–
UUAUUCUAUAUAGGAUAUUGAUGUAAUUUAUUUCAAGAAGGAUAUACAUGAGGAUCACCCAUGUUGGAUAGGGUUAGUUUGUUU [JR_SSNG1_Sub080] (Eterna round: R96, puzzle: Same State NG 1)	–	58.2 nM	–	–
UUCACCUUUUUUAACAUGAGGAUCACCCAUGUAUAUUGUACGUAGGAUAUCGAUGCUUUUUUUUUCGAGAAGGACGAUGUAAGU [JR_SSND3_Sub051] (Eterna round: R96, puzzle: Same State NG 3)	38.6 nM	34.2 nM	37.5 nM	–
UUGAAGAACUAAGGAUAUUGAAUACAUAUGUUUAACAUGAGGAUCACCCAUGUGGGUUGCGGUGUCGAGAAGGUAGAAUAAUAG [Mat - same State NG 2 - JL mod - D96] (Eterna round: R96, puzzle: Same State NG 2)	185 nM	148 nM	272 nM	–
UUGAAGAAUUAAGGAUAUCGAGUACAUAUGUUUAACAUGAGGAUCACCCAUGUGGGUUGCGGUAUCGAGAAGGUAAAUUACAAG [JL SSNG2 1.43] (Eterna round: R96, puzzle: Same State NG 2)	45.3 nM	32 nM	53.9 nM	–
UUGAAGAAUUAAGGAUAUUGAGUACAUAUGUUUAACAUGAGGAUCACCCAUGUGGGUUGCGGUAUCGAGAAGGUAAAUUAAUAG [Mat - same State NG 2 - JL mod - D66] (Eterna round: R96, puzzle: Same State NG 2)	94.4 nM	126 nM	157 nM	–
UUGAAGAAUUAAGGAUAUUGAUUACAUAUGUUUAACAUGAGGAUCACCCAUGUGGGUUGCGGUAUCGAGAAGGUAAAUUAAUAG [Mat - same State NG 2 - JL mod - D81] (Eterna round: R96, puzzle: Same State NG 2)	168 nM	181 nM	174 nM	–
UUGAAGACGGACAAGGAUAUGUCAAAGGAAACAUGAGGAUCACCCAUGUGGAGAUUGGAGAAGAAACAGAAGGUGUACGGAGAGA [JR_SS2_Sub008] (puzzle: Same State 2)	–	–	–	apparent KD of MS2 coat protein (MS2 coat protein [3]; [5]): 27.5 nM; apparent KD of MS2 coat protein (MS2 coat protein [3]; [6]): 13.6 nM; apparent KD of MS2 coat protein (MS2 coat protein [3]; [7]): 21.4 nM
UUGAAUAAUUAAGGAUAUCGAGUACAUAUGUUAAACAUGAGGAUCACCCAUGUGGGUUGCGGUAUCGAGAAGGUAAAAGACAAG [Mat - Same State NG 2 - JL mod - D59] (Eterna round: R96, puzzle: Same State NG 2)	31.2 nM	25.6 nM	42 nM	–
UUGAGAUGUACAGGAUAUGGUGAGGAUCACCCACUAGAAGGGUGCACAUGUGAAUCGGACAUGAGGAUCACCCAUGUAGGGCGU (Eterna round: R96, puzzle: Same State NG 1)	187 nM	207 nM	369 nM	–
UUGAGGAAUUAAGGAUAUUGAGUACAUAUGUUUAACAUGAGGAUCACCCAUGUGGGUUGCGGUAUCGAGAAGGUAAAUUACAAG [Mat - same State NG 2 - JL mod - D74] (Eterna round: R96, puzzle: Same State NG 2)	–	97.8 nM	–	–
UUGAUAUGCGCAGGAUAUGGUGAGGAUCACCCACUAGAAGGGUGCACAUGAGAAUCGAACAUGAGGAUCACCCAUGUUCUGAGC (Eterna round: R96, puzzle: Same State NG 1)	831 nM	295 nM	1030 nM	–
UUGCGCUGUCGAGAGGAUAUGCGGUGUUGGACAUGAGGAUCACCCAUGUUAGCGAUUGCUUUACGGUAGAAGGCUCUUCAGCUGC [salish99_ss2_r3_098] (Eterna round: R96, puzzle: Same State 2)	74 nM	50.1 nM	82.8 nM	–
UUGCGCUGUCGAGAGGAUAUGCGGUGUUGGACAUGAGGAUCACCCAUGUUAGCGAUUGCUUUACGGUAGAAGGCUCUUCAGCUGC [salish99_ss2_r3_098] (puzzle: Same State 2)	–	–	–	apparent KD of MS2 coat protein (MS2 coat protein [3]; [6]): 63.5 nM
UUGCGGAAUUAAGGAUAUUGAGUACAUAUGUUUAACAUGAGGAUCACCCAUGUGGGUUGCGGUAUCGAGAAGGUAACUUACUAC [salish99_SSNG2_r04_803] (Eterna round: R96, puzzle: Same State NG 2)	110 nM	80.5 nM	102 nM	–
UUGCUCGUGUGAGGAUAUGCCGCCGUUUCGGCUGCAGAAGGUACUGUAAUACAUGAGGAUCACCCAUGUCUCUGUUGUUUCGUG [salish99_SSNG1_r04_934] (Eterna round: R96, puzzle: Same State NG 1)	17.1 nM	16.4 nM	19.3 nM	–
UUGCUCGUGUGAGGAUAUGCCGCCGUUUCGGCUGCAGAAGGUGCUACGUUACAUGAGGAUCACCCAUGUCUCUGUUGUUUCGUG [salish99_SSNG1_r04_941] (Eterna round: R96, puzzle: Same State NG 1)	17.5 nM	19.7 nM	21.1 nM	–
UUGCUUCUCGUAGGAUAUGUAGGAUAUGCCUACAUGAGGAUCACCCAUGUUCGCAUGGCAGAAGGACAGAAGGACGAUCACCCU [pwkr ssNG2 2FMN + 1F5.8] (Eterna round: R96, puzzle: Same State NG 2)	43.5 nM	88.1 nM	472 nM	–
UUGGGUUUGCGAGGAUAUCGUAUGUGAUUUGAACGAGAAGGCGCUAUUUAAAUUAUUUUAACAUAACAUGAGGAUCACCCAUGU [JR_SSNG1_Sub021] (Eterna round: R96, puzzle: Same State NG 1)	–	14.2 nM	–	–
UUGUGUUUGCGAGGAUAUCGUUUGUUGAAGUUACGAGAAGGCGCUCUCAUUACAUGAGGAUCACCCAUGUCUUUGAUGCAUGAU [JR_SSNG1_Sub071] (Eterna round: R96, puzzle: Same State NG 1)	54.7 nM	44.5 nM	68.2 nM	–
UUUACUUUCAUAGGAUAUCAUGCGAAAAUUGCGUGAGAAGGGUGCACACUGUCUUUCUCGGAGUACAUGAGGAUCACCCAUGUG [SameState NG1 #67] (Eterna round: R96, puzzle: Same State NG 1)	45.6 nM	36.8 nM	44.3 nM	–
UUUAGAGGCGCAGGAUAUGGUGAGGAUCACCCACUAGAAGGGUGCACAUGAGAAUCGGACAUGAGGAUCACCCAUGUUUGGCGC (Eterna round: R96, puzzle: Same State NG 1)	806 nM	554 nM	816 nM	–
UUUAGUUGCGCGCAGGAUAUGUAUUAAUAUACAUGAGGAUCACCCAUGUGAGAUCGAAUAGAUCUACAGAAGGGCGAAUCGCGAC [Laonerce - 26] (puzzle: Same State 2)	–	–	–	apparent KD of MS2 coat protein (MS2 coat protein [3]; [5]): 32.9 nM; apparent KD of MS2 coat protein (MS2 coat protein [3]; [6]): 168 nM; apparent KD of MS2 coat protein (MS2 coat protein [3]; [7]): 611 nM
UUUAGUUGCGGGCAGGAUAUGUAUUAAAAUACAUGAGGAUCACCCAUGUGCGGGUAUAACACCCGACAGAAGGGCCAAUCGCGAC [Laonerce] (Eterna round: R96, puzzle: Same State 2)	24.5 nM	256 nM	278 nM	–
UUUAGUUGCGGGCAGGAUAUGUAUUAAUAUACAUGAGGAUCACCCAUGUGCGGGUAUAACACCCGACAGAAGGGCCAAUCGCGAC [Laonerce - 5] (puzzle: Same State 2)	–	–	–	apparent KD of MS2 coat protein (MS2 coat protein [3]; [5]): 28.3 nM; apparent KD of MS2 coat protein (MS2 coat protein [3]; [6]): 302 nM; apparent KD of MS2 coat protein (MS2 coat protein [3]; [7]): 389 nM
UUUGGGUGGCUGGAGGAUAUCCUUGUGGUUACAUGAGGAUCACCCAUGUGCCGCGCGGUGCGCGAGGAGAAGGCUGGCGGCCGUU (puzzle: Same State 2)	–	–	–	apparent KD of MS2 coat protein (MS2 coat protein [3]; [5]): 26 nM; apparent KD of MS2 coat protein (MS2 coat protein [3]; [6]): 79.5 nM; apparent KD of MS2 coat protein (MS2 coat protein [3]; [7]): 151 nM
UUUGGGUGGCUGGAGGAUAUUCGAGUGGUUACAUGAGGAUCACCCAUGUGUCGCGCGGUACACGAGGAGAAGGCUGGCGGCCGUU (puzzle: Same State 2)	–	–	–	apparent KD of MS2 coat protein (MS2 coat protein [3]; [6]): 37.7 nM

From the supplement of paper PMC9170038
